Laboratory results: patent publication US20220002436A1 (DENALI THERAPEUTICS, published 2022)

Columns and labels:
[1] = biological target: T1, Human TfR apical domain (human, UniProt P02786 198-378); experiment: SPR (Biacore), apical hTfR
T1 construct: also called apical hTfR; human apical hTfR

[2] = biological target: T1, Human TfR apical domain; experiment: SPR (Biacore 8K), fusion protein captured with Human Fab Capture Kit, human TfR apical domain as analyte, 1:1 kinetic fit
Description: The affinities of Fc polypeptide dimer-antibody variable region fusion proteins for human TfR apical domain and HER2 ECD were determined by surface plasmon resonance using a Biacore™ 8K. Fc polypeptide dimer-antibody variable region fusion proteins were captured using a Human Fab Capture Kit (GE, #28-9583-25) on Biacore™ Series S CM5 sensor chips (GE, #29149604) for measurement of human TfR apical domain binding, or using a Human Fc capture Kit (GE, #29234600) for measurement of human HER2-ECD binding (ACROBiosystems, HE2-H5225). Serial 3-fold dilutions of each antigen were injected at a flow rate of 30 μL/min. The binding of the antigens to captured Fc polypeptide dimer-antibody variable region fusion proteins was monitored for 30 to 300 seconds and then their dissociation was monitored for 30-4,200 seconds in HBS-EP+ running buffer. Binding responses were corrected by subtracting the RU from a blank flow cell. A 1:1 Languir model of simultaneous fitting of kₒₙ and koff was used for kinetics analysis.

[3] = biological target: T1, Human TfR apical domain; experiment: SPR (Biacore T200 or 8K), captured via anti-human Fab, recombinant TfR apical domain as analyte, steady-state affinity
Description: (§1) Affinities of mAbs and TfR-binding Fc polypeptides were measured by SPR using a Biacore T200 or a Biacore 8K. Biacore™ Series S CM5 sensor chips were immobilized with monoclonal mouse anti-human IgG (Fc) antibody for HER2 affinity measurements or mouse anti-human Fab for TfR affinity measurements (human antibody or Fab capture kit from GE Healthcare). Serial 3-fold dilutions of analyte (recombinant HER2 extracellular domain or recombinant TfR apical domain) were injected at a flow rate of 30 μL/min. Each sample was analyzed using a 3-minute association and a 10-minute dissociation. After each injection, the chip was regenerated using 3 M MgCl₂. Binding response was corrected by subtracting the RU from a flow cell capturing an irrelevant IgG at similar density. A 1:1 Languir model of simultaneous fitting of kₒₙ and koff was used for kinetics analysis.

[4] = biological target: HER2 on HER2-positive cancer cells (BT474, OE19, SK-BR-3) (human, UniProt P04626 23-1255); experiment: cell-based or functional assay
[5] = biological target: T2, HER2 extracellular domain (human, UniProt P04626 23-652); experiment: SPR (Biacore T200 or 8K), captured via anti-human IgG (Fc), recombinant HER2 extracellular domain as analyte, 1:1 kinetic fit
T2 construct: extracellular domain; also called HER2 ECD; HER2-ECD
Description: as §1

[6] = biological target: T1, Human TfR apical domain; experiment: SPR (Biacore), antibody captured via anti-human Fab, recombinant TfR apical domain as analyte; the table footnote says NB = no binding
Description: as §1

T1 sequence (P02786 198-378 limits assumed): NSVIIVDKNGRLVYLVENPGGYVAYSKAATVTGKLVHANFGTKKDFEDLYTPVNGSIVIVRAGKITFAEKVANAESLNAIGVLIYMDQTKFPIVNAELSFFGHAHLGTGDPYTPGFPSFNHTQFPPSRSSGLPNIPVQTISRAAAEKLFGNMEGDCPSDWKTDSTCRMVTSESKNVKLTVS

| Binder | Kd [1] [nM] | Kd [2] [nM] | Kd [3] [nM] | Kd [5] [nM] | koff [5] [s⁻¹] | kon [5] [M⁻¹ s⁻¹] | binding result [6] | IC50, BT474 cell viability (growth inhibition assay) [4] [nM] | IC50, OE19 cell viability (growth inhibition assay) [4] [nM] |
| --- | --- | --- | --- | --- | --- | --- | --- | --- | --- |
| HER2_DII-35.23.1.1^cisLALA (bispecific antibody, human IgG1, kappa, L234A L235A, Fc polypeptide dimer-Fab fusion; the second heavy chain is a hole Fc without a TfR site; also called ATV35.23.1.1:Her2_DII huIgG1.LALA.knob) heavy 1: EVQLVESGGGLVQPGGSLRLSCAASGFTFTDYTMDWVRQAPGKGLEWVADVNPNSGGSIYNQRFKGRFTLSVDRSKNTLYLQMNSLRAEDTAVYYCARNLGPSFYFDYWGQGTLVTVSSASTKGPSVFPLAPSSKSTSGGTAALGCLVKDYFPEPVTVSWNSGALTSGVHTFPAVLQSSGLYSLSSVVTVPSSSLGTQTYICNVNHKPSNTKVDKKVEPKSCDKTHTCPPCPAPEAAGGPSVFLFPPKPKDTLMISRTPEVTCVVVDVSHEDPEVKFNWYVDGVEVHNAKTKPREEQYNSTYRVVSVLTVLHQDWLNGKEYKCKVSNKALPAPIEKTISKAKGQPREPQVYTLPPSRDELTKNQVSLWCLVKGFYPSDIAVEWESFGTEWSNYKTTPPVLDSDGSFFLYSKLTVSKEEWQQGFVFSCSVMHEALHNHYTQKSLSLSPGK heavy 2: not shown light: not shown | 620 | 534 | – | – | – | – | – | – | – |
| HER2_DI-35.23.4^cisLALA (bispecific antibody, human IgG1, kappa, L234A L235A, Fc polypeptide dimer-Fab fusion; the hole chain has no TfR site and no LALA; also called ATV:HER2-DI; ATV:-HER2-DI) heavy 1: QVQLQQPGAELVRPGASVKLSCKASGYSFTGYWMNWLKQRPGQGLEWIGMIHPSDSEIRANQKFRDKATLTVDKSSTTAYMQLSSPTSEDSAVYYCARGTYDGGFEYWGQGTTLTVSSASTKGPSVFPLAPSSKSTSGGTAALGCLVKDYFPEPVTVSWNSGALTSGVHTFPAVLQSSGLYSLSSVVTVPSSSLGTQTYICNVNHKPSNTKVDKKVEPKSCDKTHTCPPCPAPEAAGGPSVFLFPPKPKDTLMISRTPEVTCVVVDVSHEDPEVKFNWYVDGVEVHNAKTKPREEQYNSTYRVVSVLTVLHQDWLNGKEYKCKVSNKALPAPIEKTISKAKGQPREPQVYTLPPSRDELTKNQVSLWCLVKGFYPSDIAVEWESYGTEWSNYKTTPPVLDSDGSFFLYSKLTVSKEEWQQGFVFSCSVMHEALHNHYTQKSLSLSPGK heavy 2: not shown light: DIVLTQSPASLVVSLGQRATISCRASQSVSGSRFTYMHWYQQKPGQPPKLLIKYASILESGVPARFSGGGSGTDFTLNIHPVEEDDTATYYCQHSWEIPPWTFGGGTKLEIKRTVAAPSVFIFPPSDEQLKSGTASVVCLLNNFYPREAKVQWKVDNALQSGNSQESVTEQDSKDSTYSLSSTLTLSKADYEKHKVYACEVTHQGLSSPVTKSFNRGEC | – | – | 370 | 7.5 | 0.00105 | 139000 | – | – | – |

Second part, led by results:

| Kd [1] [nM] | Kd [2] [nM] | Kd [3] [nM] | Kd [5] [nM] | koff [5] [s⁻¹] | kon [5] [M⁻¹ s⁻¹] | binding result [6] | Binder | IC50, BT474 cell viability (growth inhibition assay) [4] [nM] | IC50, OE19 cell viability (growth inhibition assay) [4] [nM] |
| --- | --- | --- | --- | --- | --- | --- | --- | --- | --- |
| – | 445 | 450 | – | – | – | – | HER2_DII-35.23.4^cisLALA (bispecific antibody, human IgG1, kappa, L234A L235A, also called ATV:HER2-DII; ATV:-HER2-DII) heavy 1: EVQLVESGGGLVQPGGSLRLSCAASGFTFTDYTMDWVRQAPGKGLEWVADVNPNSGGSIYNQRFKGRFTLSVDRSKNTLYLQMNSLRAEDTAVYYCARNLGPSFYFDYWGQGTLVTVSSASTKGPSVFPLAPSSKSTSGGTAALGCLVKDYFPEPVTVSWNSGALTSGVHTFPAVLQSSGLYSLSSVVTVPSSSLGTQTYICNVNHKPSNTKVDKKVEPKSCDKTHTCPPCPAPEAAGGPSVFLFPPKPKDTLMISRTPEVTCVVVDVSHEDPEVKFNWYVDGVEVHNAKTKPREEQYNSTYRVVSVLTVLHQDWLNGKEYKCKVSNKALPAPIEKTISKAKGQPREPQVYTLPPSRDELTKNQVSLWCLVKGFYPSDIAVEWESYGTEWSNYKTTPPVLDSDGSFFLYSKLTVSKEEWQQGFVFSCSVMHEALHNHYTQKSLSLSPGK heavy 2: not shown light: not shown | 1.17 | 0.725 |
| – | – | – | 6.5 | 0.00101 | 154000 | no binding | anti-HER2-DI (antibody, human IgG1, kappa, V domains shown) VH: QVQLQQPGAELVRPGASVKLSCKASGYSFTGYWMNWLKQRPGQGLEWIGMIHPSDSEIRANQKFRDKATLTVDKSSTTAYMQLSSPTSEDSAVYYCARGTYDGGFEYWGQGTTLTVSS VL: DIVLTQSPASLVVSLGQRATISCRASQSVSGSRFTYMHWYQQKPGQPPKLLIKYASILESGVPARFSGGGSGTDFTLNIHPVEEDDTATYYCQHSWEIPPWTFGGGTKLEIKR | – | – |
